Earlier results, collected in article PMC12030383, “Pharmacokinetics, Pharmacodynamics, and Bioequivalence of Test Insulin Glargine Versus Reference Preparation (Lantus®) in Healthy Male Volunteers—By Euglycemic Clamp Technique” (Pharmaceutics, 2025).

Protocol: After subcutaneous injection, the acidic solution in insulin is neutralized so that the insulin analog forms a precipitated microscopic deposit at the injection site, thus allowing for a slow and continuous release of insulin glargine from the injection site into the bloodstream, resulting in a smooth and predictable blood concentration without peaks for up to 24 h. Therefore, insulin glargine can be administered ...

Insulin glargine
solubility in acidic solutions (acidic solutions): completely soluble
solubility in neutral solutions (neutral solutions): low solubility
